The record followed here is the supplement of paper PMC10567573.

This series in a line: protein stability index of a GFP-peptide fusion (GPS, HEK-293T) (PSI 1-6); higher = more stable.
Where [1] appears, read: treatment: DMSO, c terminus: a fixed tail appended.
Where [2] appears, read: treatment: MLN4924 1 uM, 8 h, c terminus: a fixed tail appended.

± gives the standard deviation.
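Note: 24-mer peptide tiles fused after GFP, lentivirally expressed, FACS-sorted into six equal bins by GFP/DsRed ratio, decoded by Illumina sequencing, PSI is the read-weighted mean bin number.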

With AAARCVVLDCRPYLAFAASNVRGS [DUSP5], the protein stability index under setting [1] worked out at 2.15 ± 0.55 and the protein stability index under setting [2] is 2.2 ± 0.093.

As to AAASPYIRTKLNYNPPKDDGSTYK [GAN], the protein stability index stood at 3.98 ± 0.11 under setting [1] and 3.79 ± 0.2 under setting [2].

As for AAKIIPHSRVAKPHQREKIDKEIE [PLK2], the protein stability index by setting is: under setting [1], 5.02 ± 0.42; under setting [2], 4.7 ± 0.4. AAKTLPGGAGKGRTPSAFPQTPAA [EHMT1] had a protein stability index under setting [1] of 4.26 ± 0.33 and a protein stability index under setting [2] of 4.39 ± 0.085.

For the sequence AAQSTKSPWNFLGDELYEQSDEEQ [CLPTM1], the protein stability index is, setting by setting: under setting [1], 5.25 ± 0.19; under setting [2], 5.35 ± 0.18.

AAYSSILSSLGENPQRQGLLKTPW [GCH1]: the protein stability index is, setting by setting: under setting [1], 2.54 ± 0.22; under setting [2], 2.55 ± 0.29.

ADDAAAVAAKCPRLSECSSPPDYL [TRIB1] registered a protein stability index under setting [1] of 5.03 ± 0.79 and a protein stability index under setting [2] of 5.22 ± 0.17. On the same counts, the results for ADFEQKMLDSALRFQAMEETHLRH [FCHO1] are 3.88 ± 0.29 and 3.93 ± 0.24. In the same order, the values of ADFESEDEGEEFDDWEDDYDYPEE [EID1] are 4.62 ± 0.29 and 4.87 ± 0.35.

Take ADGARSAVVAAGGGSSGQVTSNGS [CLPTM1]: the protein stability index under setting [1] came out at 5.3 ± 0.065 and the protein stability index under setting [2] stood at 5.09 ± 0.14. On the same counts, the results for ADPLDTPPDSKEGIVVESNHDSHM [PDZK1] are 5.53 ± 0.1 and 5.36 ± 0.33.

As for ADRAQKMDGESEEEQESVDTGEEE [EHMT1], the protein stability index was determined as 5.78 ± 0.16 under setting [1] and 5.73 ± 0.32 under setting [2]. Consider ADSLQASMEKDATLNVDRKEKCVS [DLC1], for which the protein stability index by setting is: under setting [1], 5.35 ± 0.35; under setting [2], 5.3 ± 0.25.

As to AEITQIQSHISDMSVILSMDNNRN [KRT71], the protein stability index by setting is: under setting [1], 3.73 ± 0.16; under setting [2], 3.7 ± 0.14. In the same order, the values of AENLDVKINENVAAGMRFPLPEAI [PCDHGA10] are 4.29 ± 0.2 and 4.28 ± 0.15. On the same counts, the results for AEVVKILQTMLRQSAFLHLPLPEQ [INTS4] are 2.75 ± 0.51 and 2.89 ± 0.22.

With AFRYLSWILFPLLGCYAVYSLLYL [CLPTM1], the protein stability index by setting is: under setting [1], 2.29 ± 0.44; under setting [2], 3.03 ± 0.66.

Regarding AGEEDPSGMVTIITGLPLDNPSVL [SMG5], the protein stability index turned out to be 3.7 ± 0.18 under setting [1] and 3.75 ± 0.19 under setting [2]. Turning to AGTGAQAGQLMGFFKGIDQDIERG [LYSMD4], the protein stability index is, setting by setting: under setting [1], 4.01 ± 0.37; under setting [2], 4.01 ± 0.29. AHIALETLEGHQRAIMAHMTVEEI [FLOT1]: the protein stability index is, setting by setting: under setting [1], 3.25 ± 0.29; under setting [2], 3.51 ± 0.32.

For the sequence AHIRAERDILVEADGAWVVKMFYS [STK38L], the protein stability index reads like this: under setting [1], 2.24 ± 0.3; under setting [2], 2.27 ± 0.2. AIAKQALKKPIKGKQAPRKKAQGK [KMT5A] yielded a protein stability index under setting [2] of 4.02 ± 0.17. On to AIEHFQPNADLLFSDPSQSDPETK [FCHO1], for which the protein stability index reads like this: under setting [1], 5.5 ± 0.074; under setting [2], 5.44 ± 0.25. For AILEMKWKVRAEKEACQREKELPA [ZBED2], the protein stability index by setting is: under setting [1], 3.47 ± 0.29; under setting [2], 3.56 ± 0.55. For AIQLLSRMEYVHSKNLIYRDVKPE [CSNK1G1], the protein stability index reads like this: under setting [1], 2.28 ± 0.2; under setting [2], 2.33 ± 0.31. Consider AISLSTGRESYIPGICVARVYHGW [SLA], for which the protein stability index under setting [1] was found to be 2.92 ± 0.85 and the protein stability index under setting [2] is 2.48 ± 0.92. AKECMLQEENKSLREENKALREEN [CBY2]: the protein stability index runs as follows: under setting [1], 5.55 ± 0.22; under setting [2], 5.51 ± 0.2. Take ALAKKFIDKNTQLTLQVYREQADS [TRIM14]: the protein stability index came out at 2.88 ± 0.31 under setting [1] and 3.09 ± 0.49 under setting [2]. In the case of ALGNEGDTFHQDNQPSGLIRTYLG [RHOBTB3], the protein stability index by setting is: under setting [1], 3.48 ± 0.33; under setting [2], 3.85 ± 0.37.

As for ALLKFKPGAFIAGVPVQPVLIRYP [LPCAT4], the protein stability index is, setting by setting: under setting [1], 2.54 ± 0.73; under setting [2], 2.39 ± 0.7. In the same order, the values of ALQRLDLRNNQISHKGAEELALAL [LRRC45] are 3.22 ± 0.24 and 3.05 ± 0.43. As to ALRQTVEADVNGLRRVLDELTLAR [KRT16], the protein stability index was 3.18 ± 0.58 under setting [1] and 3.06 ± 0.33 under setting [2]. As to ALSCHEQEMVVSSLVIGALLASLT [SLC2A12], the protein stability index reads like this: under setting [1], 3 ± 0.64; under setting [2], 3.09 ± 0.29.

Take ALSQLICFCRESRYMDQWVPVINL [GADD45A]: the protein stability index reads like this: under setting [1], 2.95 ± 0.45; under setting [2], 3.06 ± 0.76.

With ALTYACAGGYVDVVKVLLESGASI [ANKRD17], the protein stability index by setting is: under setting [1], 2.64 ± 0.33; under setting [2], 2.79 ± 0.48. With ALVRTRMQAQASIEGAPEVTMSSL [SLC25A25], the protein stability index stood at 3.6 ± 0.34 under setting [1] and 3.59 ± 0.33 under setting [2]. In the same order, the values of ALVYLPGVIAAIVQLHNGTKYKKF [STEAP1] are 2.73 ± 0.44 and 2.75 ± 0.68. ALWQVLARDCFATGRHYWEVDVQE [TRIM14] gave a protein stability index under setting [1] of 2.4 ± 0.65 and a protein stability index under setting [2] of 2.4 ± 0.24. On the same counts, the results for AMQASKATKITLSAIYKWITDNFC [FOXJ1] are 2.28 ± 0.27 and 2.14 ± 0.23. In the same order, the values of ANPQYTVYSQASTMSIPVAMETDG [PPP2R5C] are 4.26 ± 0.33 and 4.41 ± 0.21. For the sequence APDDSKAQAHRIHIDPEIQDGSPT [PDLIM4], the protein stability index runs as follows: under setting [1], 5.59 ± 0.23; under setting [2], 5.47 ± 0.12. In the same order, the values of APEYRGRTELLKDAIGEGKVTLRI [MOG] are 2.59 ± 0.2 and 2.72 ± 0.38. On the same counts, the results for APHHHHHHSHSGPEISRIIVDPTT [PLK2] are 4.22 ± 0.12 and 4.12 ± 0.22. As for APLLRWVLTLSFLVATVAVGLYAM [HMOX1], the protein stability index runs as follows: under setting [1], 2.84 ± 0.56; under setting [2], 2.74 ± 0.69.

For the sequence APLVKTLEKEEEKDLVMYSKCQRL [CDC25B], the protein stability index by setting is: under setting [1], 4.69 ± 0.42; under setting [2], 4.59 ± 0.052.

In turn, AQDLGLKMTDLLSRRLQLGSEENG [PCDHGC5] gave a protein stability index under setting [1] of 3.94 ± 0.22 and a protein stability index under setting [2] of 3.77 ± 0.19. Regarding AQSRLEDPGQDLVPKQAIQVQEAD [DLX1], the protein stability index reads like this: under setting [1], 5.35 ± 0.18; under setting [2], 5.32 ± 0.27. Consider AQTPLHVAAETGHTSTARLLLHRG [RIPK4], for which the protein stability index is 3.89 ± 0.12 under setting [1] and 3.91 ± 0.38 under setting [2].

Consider ARGTPSPKRMPSGRGGRDRFTAES [FSD1], for which the protein stability index reads like this: under setting [1], 4.43 ± 0.3; under setting [2], 4.69 ± 0.069. On the same counts, the results for ATEQAATQESTFQELCEGLLEESD [NOP53] are 5.61 ± 0.19 and 5.58 ± 0.12.

As for ATIVFATDFYLIFNDVAKFLKQGD [CMTM3], the protein stability index came out at 2.9 ± 0.91 under setting [1] and 2.77 ± 0.43 under setting [2]. For ATSESTTVEPGKLDVGATEGQDLQ [DRICH1], the protein stability index is, setting by setting: under setting [1], 5.46 ± 0.27; under setting [2], 5.5 ± 0.22. In the same order, the values of ATYCVRTFALYKNGSSEKREVRQF [PTPRD] are 2.44 ± 0.4 and 2.35 ± 0.39. As for AVAHMKYMGKGSMTGLALKHMFER [MATN2], the protein stability index under setting [1] was determined as 2.07 ± 0.3 and the protein stability index under setting [2] was 2.34 ± 0.26.

With AVDCKWYIRAPPRSKIYLRFLDYE [NETO1], the protein stability index by setting is: under setting [1], 2.43 ± 0.24; under setting [2], 2.19 ± 0.38. Sequence AVDGILHMFTPKLDKMLDPQVWRE [SLC6A17] yielded a protein stability index under setting [1] of 2.27 ± 0.34 and a protein stability index under setting [2] of 2.53 ± 0.25.

On to AVIYLKKTPEEAYRALLSGSNPPY [CDC14A], for which the protein stability index by setting is: under setting [1], 2.21 ± 0.44; under setting [2], 2.15 ± 0.46. As to AVSCPYLPSNLLKKFRSSTSSSLG [KCNA4], the protein stability index worked out at 2.54 ± 0.21 under setting [1] and 2.58 ± 0.2 under setting [2]. In the same order, the values of CAGKAKRSGGHAPRVRELLLDALS [ESR2] are 2.38 ± 0.29 and 2.52 ± 0.25. On the same counts, the results for CALEEYVRSQYPNQPTRFGKLLLR [NR2F2] are 2.22 ± 0.17 and 2.33 ± 0.25. As for CDKKAMVWDMRSGQCVQAFETHES [GNB5], the protein stability index was 3.67 ± 0.27 under setting [1] and 3.73 ± 0.29 under setting [2]. On to CDYSQYFKTIEELRDKIMATTIDN [KRT15], for which the protein stability index is, setting by setting: under setting [1], 3.28 ± 0.12; under setting [2], 3.22 ± 0.17. On the same counts, the results for CFIQSSHLIRHQITHTREEQPHGR [ZNF8] are 3.4 ± 0.12 and 3.37 ± 0.23. Take CGHTFCRLCLPALSQMGAQSSGKI [TRIM15]: the protein stability index runs as follows: under setting [1], 2.12 ± 0.42; under setting [2], 2.36 ± 0.46. CKAFSTCVSHLIIVTVHYGCASFI [OR10K2]: the protein stability index is, setting by setting: under setting [1], 2.88 ± 0.54; under setting [2], 3.01 ± 0.57.

In turn, CKCSEGFVLAEDGRRCKKCTEGPI [MATN2] registered a protein stability index under setting [1] of 4.99 ± 0.2 and a protein stability index under setting [2] of 5.41 ± 0.081. Take CLHHVHYLATEYLETHFRDVSSTE [GAN]: the protein stability index under setting [1] was 2.37 ± 0.23 and the protein stability index under setting [2] stood at 2.52 ± 0.54. For the sequence CMPLVCTAIFYTLMTCEMLNRRNG [EDNRA], the protein stability index by setting is: under setting [1], 3.29 ± 0.24; under setting [2], 3.58 ± 0.93. Regarding CNQCGKCFIQSSHLIRHQITHTRE [ZNF8], the protein stability index is, setting by setting: under setting [1], 4.28 ± 0.19; under setting [2], 4.47 ± 0.21. Consider CPLKNPTFLDYVRPRSWTCRYVF [SOAT1], for which the protein stability index by setting is: (treatment: DMSO, c terminus: native) 3.22 ± 0.47; (treatment: MLN4924 1 uM, 8 h, c terminus: native) 3.06 ± 0.42.

For CQHLSSSAEELRKARSNSTLSKSE [KCNA3], the protein stability index reads like this: under setting [1], 5.01 ± 0.33; under setting [2], 4.75 ± 0.26. On the same counts, the results for CQSGYFSSMFSGSWKESSMNIIEL [GMCL1] are 2.53 ± 0.37 and 2.34 ± 0.77.
